# Assay results as given in patent US12297272B2, “IgG Fc variants for veterinary use” (Elanco US Inc., priority 2017, dated 2025).
# Numbering of substitutions follows the chain as printed.
# B1: equine IgG4 Fc: wild-type equine IgG4 Fc polypeptide (protein)
# chain: VGPSVFIFPPKPKDVLMISRTPTVTCVVVDVGHDFPDVQFNWYVDGVETHTATTEPKQEQFNSTYRVVSVLPIQHKDWLSGKEFKCKVNNKALPAPVERTISAPTGQPREPQVYVLAPHRDELSKNKVSVTCLVKDFYPPDIDIEWKSNGQPEPETKYSTTPAQLDSDGSYFLYSKLTVETNRWQQGTTFTCAVMHEALHNHYTEKSVSKSPGK
# modifications: Wild-type equine IgG4 Fc, Protein A +, C1q +
# notes: wild-type equine IgG4 Fc polypeptide
# B2: equine IgG7 Fc: wild-type equine IgG7 Fc polypeptide (protein)
# chain: B1 chain with F61N, V70I, P72A, K91Q, E98Q, R99K, A103K, R120P, S167G
# modifications: Wild-type equine IgG7 Fc, Protein A +, C1q +
# notes: wild-type equine IgG7 Fc polypeptide
# B3: equine IgG1 Fc: wild-type equine IgG1 Fc polypeptide (protein)
# chain: GGPSVFLFPPNPKDTLMITRTPEVTCVVVDVSQENPDVKFNWYMDGVEVRTATTRPKEEQFNSTYRVVSVLRIQHQDWLSGKEFKCKVNNQALPQPIERTITKTKGRSQEPQVYVLAPHPDESKKSKVSVTCLVKDFYPPEINIEWQSNGQPELETKYSTTQAQQDSDGSYFLYSKLSVDRNRWQQGTTFTCGVMHEALHNHYTQKNVSKNPGK
# modifications: Wild-type equine IgG1 Fc , Protein A +, C1q +
# notes: wild-type equine IgG1 Fc polypeptide
# B4: equine IgG3 Fc: wild-type equine IgG3 Fc polypeptide (protein)
# chain: GGPSVFIFPPKPKDVLMITRMPEVTCLVVDVSHDSSDVLFTWYVDGTEVKTAKTMPNEEQNNSTYRVVSVLRIQHQDWLNGKKFKCKVNNQALPAPVERTISKATGQTRVPQVYVLAPHPDELSKNKVSVTCLVKDFYPPDITVEWQSNEHPEPEGKYRTTEAQKDSDGSYFLYSKLTVEKDRWQQGTTFTCVVMHEALHNHVMQKNISKNPGK
# modifications: Wild-type equine IgG3 Fc, Protein A +, C1q+
# notes: wild-type equine IgG3 Fc polypeptide
# B5: equine IgG5 Fc: wild-type equine IgG5 Fc polypeptide (protein)
# chain: GGPSVFIFPPKPKDVLMISRKPEVTCVVVDLGHDDPDVQFTWFVDGVETHTATTEPKEEQFNSTYRVVSVLPIQHQDWLSGKEFKCSVTSKALPAPVERTISKAKGQLRVPQVYVLAPHPDELAKNTVSVTCLVKDFYPPEIDVEWQSNEHPEPEGKYSTTPAQLNSDGSYFLYSKLSVETSRWKQGESFTCGVMHEAVENHYTQKNVSHSPGK
# modifications: Wild-type equine IgG5 Fc, Protein A -, C1q -
# notes: wild-type equine IgG5 Fc polypeptide
# B6: feline IgG1a Fc: wild-type feline IgG1a Fc polypeptide (protein)
# chain 1: RKTDHPPGPKTGEGPKCPPPEMLGGPSIFIFPPKPKDTLSISRTPEVTCLVVDLGPDDSDVQITWFVDNTQVYTAKTSPREEQFNSTYRVVSVLPILHQDWLKGKEFKCKVNSKSLPSPIERTISKAKGQPHEPQVYVLPPAQEELSENKVSVTCLIKSFHPPDIAVEWEITGQPEPENNYRTTPPQLDSDGTYFVYSKLSVDRSHWQRGNTYTCSVSHEALHSHHTQKSLTQSPGK
# chain 2: B6 chain 1 with T11P, G12C, E13D, G14C
# modifications: Alternative wild-type feline IgG1a Fc, Protein A +, C1q +; Wild-type feline IgG1a Fc, Protein A +, C1q +
# notes: wild-type feline IgG1a Fc polypeptide
# B7: feline IgG1b Fc: wild-type feline IgG1b Fc polypeptide (protein)
# chain 1: B6 chain 1 with A127D, K158E, S159G, H161Y, P163S, V196L, K199R, H206R
# chain 2: RKTDHPPGPKPCDCPKCPPPEMLGGPSIFIFPPKPKDTLSISRTPEVTCLVVDLGPDDSDVQITWFVDNTQVYTAKTSPREEQFNSTYRVVSVLPILHQDWLKGKEFKCKVNSKSLPSPIERTISKDKGQPHEPQVYVLPPAQEELSENKVSVTCLIEGFYPSDIAVEWEITGQPEPENNYRTTPPQLDSDGTYFLYSRLSVDRSRWQRGNTYTCSVSHEALHSHHTQKSLTQSPGK
# modifications: Alternative wild-type feline IgG1b Fc, Protein A +, C1q +; Wild-type feline IgG1b Fc, Protein A +, C1q +
# notes: wild-type feline IgG1b Fc polypeptide
# B8: feline IgG2 Fc: wild-type feline IgG2 Fc polypeptide (protein)
# chain: PKTASTIESKTGEGPKCPVPEIPGAPSVFIFPPKPKDTLSISRTPEVTCLVVDLGPDDSNVQITWFVDNTEMHTAKTRPREEQFNSTYRVVSVLPILHQDWLKGKEFKCKVNSKSLPSAMERTISKAKGQPHEPQVYVLPPTQEELSENKVSVTCLIKGFHPPDIAVEWEITGQPEPENNYQTTPPQLDSDGTYFLYSRLSVDRSHWQRGNTYTCSVSHEALHSHHTQKSLTQSPGK
# modifications: Wild-type feline IgG2 Fc, Protein A +, C1q -
# notes: wild-type feline IgG2 Fc polypeptide
# B9: equine IgG6 Fc: wild-type equine IgG6 Fc polypeptide (protein)
# chain: GRPSVFIFPPNPKDTLMISRTPEVTCVVVDVSQENPDVKFNWYVDGVEAHTATTKAKEKQDNSTYRVVSVLPIQHQDWRRGKEFKCKVNNRALPAPVERTITKAKGELQDPQVYILAPHPDEVTKNTVSVTCLVKDFYPPDINVEWQSNEEPEPEVKYSTTPAQLDGDGSYFLYSKLTVETDRWEQGESFTCVVMHEAIRHTYRQKSITNFPGK
# modifications: Wild-type equine IgG6 Fc, Protein A -, C1q -
# notes: wild-type equine IgG6 Fc polypeptide
# B10: equine IgG2 Fc: wild-type equine IgG2 Fc polypeptide (protein)
# chain 1: DMSKCPKCPAPELLGGPSVFIFPPNPKDALMISRTPVVTCVVVNLSDQYPDVQFSWYVDNTEVHSAITKQREAQFNSTYRVVSVLPIQHQDWLSGKEFKCSVTNVGVPQPISRAISRGKGPSRVPQVYVLPPHPDELAKSKVSVTCLVKDFYPPDISVEWQSNRWPELEGKYSTTPAQLDGDGSYFLYSKLSLETSRWQQVESFTCAVMHEALHNHFTKTDISESLGK
# chain 2: GGPSVFIFPPNPKDALMISRTPVVTCVVVNLSDQYPDVQFSWYVDNTEVHSAITKQREAQFNSTYRVVSVLPIQHQDWLSGKEFKCSVTNVGVPQPISRAISRGKGPSRVPQVYVLPPHPDELAKSKVSVTCLVKDFYPPDISVEWQSNRWPELEGKYSTTPAQLDGDGSYFLYSKLSLETSRWQQVESFTCAVMHEALHNHFTKTDISESLGK
# modifications: Synthetic Variant equine Fc IgG2 (with equine IgG1 hinge), Protein A - , C1q -; Wild-type equine IgG2 Fc, Protein A -, C1q -
# notes: wild-type equine IgG2 Fc polypeptide
# Target: C1q (Homo sapiens, UniProt P02745+P02746+P02747)
# Assay: C1q binding of IgG Fc polypeptides (Octet biolayer interferometry described); for C1q binding: key: (−) denotes low or no measurable binding activity
# Details: not given
# Description: Binding analysis may be performed using an Octet biosensor.
# Sequence of C1q (P02745 23-245): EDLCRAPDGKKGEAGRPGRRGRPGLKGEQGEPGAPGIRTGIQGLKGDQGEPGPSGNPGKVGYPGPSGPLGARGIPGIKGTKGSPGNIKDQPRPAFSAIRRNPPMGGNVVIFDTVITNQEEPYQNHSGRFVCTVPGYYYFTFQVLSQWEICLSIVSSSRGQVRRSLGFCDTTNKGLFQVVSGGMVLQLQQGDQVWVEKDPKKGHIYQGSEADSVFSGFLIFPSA
# Sequence of C1q (P02746 28-253): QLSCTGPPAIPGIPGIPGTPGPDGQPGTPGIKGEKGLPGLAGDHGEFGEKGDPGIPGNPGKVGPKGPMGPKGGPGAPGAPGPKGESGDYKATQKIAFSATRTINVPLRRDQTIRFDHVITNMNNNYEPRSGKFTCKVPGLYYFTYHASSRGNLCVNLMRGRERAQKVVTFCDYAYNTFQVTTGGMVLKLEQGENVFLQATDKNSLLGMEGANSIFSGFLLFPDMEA
# Sequence of C1q (P02747 29-245): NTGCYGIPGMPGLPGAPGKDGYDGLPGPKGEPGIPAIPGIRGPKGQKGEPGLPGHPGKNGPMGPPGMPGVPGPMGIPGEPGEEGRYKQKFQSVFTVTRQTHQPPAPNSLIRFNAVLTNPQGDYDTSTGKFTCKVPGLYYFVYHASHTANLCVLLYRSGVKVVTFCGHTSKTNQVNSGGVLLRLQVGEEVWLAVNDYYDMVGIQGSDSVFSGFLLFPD
row,Molecule,binding affinity to C1q
1,B1,bind to C1q
2,B2,bind to C1q
3,B3,bind to C1q
4,B4,bind to C1q
5,B5,weak or no measurable binding affinity to C1q
6,B6,bind to C1q
7,B7,bind to C1q
8,B8,weak or no measurable binding affinity to C1q
9,B9,weak or no measurable binding affinity to C1q
10,B10,weak or no measurable binding affinity to C1q

# Same assay, conditions: Wild-type Equine IgG Fc
row,Molecule,C1q Binding
1,B5,−
2,B9,−
3,B10,−

# Same assay, conditions: Wild-type Feline IgG Fc
row,Molecule,C1q Binding
1,B8,−

# Target: Protein A (Staphylococcus aureus, UniProt P38507)
# Assay: not given
# Details: not given
# Experimental: In some embodiments, the KD of an IgG Fc polypeptide, such as a variant IgG Fc polypeptide, to Protein A or to C1q or to CD16 is measured by using biolayer interferometry assays using a biosensor, such as an Octet® System (Pall ForteBio LLC, Fremont, CA) according to the supplier's instructions. In brief, biotinylated Protein A or C1q or CD16 is bound to the sensor tip and the association of IgG Fc polypeptide is monitored for a specified time or until steady state is reached. Dissociation may be monitored for a specified time or until steady state is reached. A buffer only blank curve is subtracted to correct for any drift. The data are fit to a 2:1 binding model using ForteBio data analysis software to determine association rate constant (kon), dissociation rate constant (koff), and the Kd. The equilibrium dissociation constant (KD) is calculated as the ratio of koff/kon. The term “kon” refers to the rate constant for association of a molecule X to its partner Y and the term “koff” refers to the rate constant for dissociation of a molecule X or partner Y from the molecule X/partner Y complex.
# Binding analysis may be performed using an Octet biosensor. Briefly, the target molecule (e.g., Protein A, C1q, CD16, etc.) may be biotinylated and free unreacted biotin removed (e.g., by dialysis). The biotinylated target molecule is captured on streptavidin sensor tips. Association of the target molecule with various concentrations (e.g., 10 μg/mL) of IgG Fc polypeptide is monitored for a specified time or until steady state is reached. Dissociation is monitored for a specified time or until steady state is reached. A buffer only blank curve may be subtracted to correct for any drift. The data are fit to a 1:1 binding model using ForteBio™ data analysis software to determine the kon, koff, and the Kd.
row,Molecule,Protein A binding affinity
1,B1,have Protein A binding affinity
2,B2,have Protein A binding affinity
3,B3,have Protein A binding affinity
4,B4,have Protein A binding affinity
5,B5,weak or no measurable Protein A binding affinity
6,B6,have Protein A binding affinity
7,B7,have Protein A binding affinity
8,B8,have Protein A binding affinity
9,B9,weak or no measurable Protein A binding affinity
10,B10,weak or no measurable Protein A binding affinity

# Same assay, conditions: Wild-type Equine IgG Fc
row,Molecule,Protein A Binding
1,B5,−
2,B9,−
3,B10,−
